PMC12724217

What was measured:
[1] = target: human chromosomal region maintenance 1 (CRM1) (UniProt O14980); experiment: two-hybrid
[2] = target: human chromosomal region maintenance 1 (CRM1) (UniProt O14980); experiment: mammalian two-hybrid (CheckMate system) luciferase assay; details: HEK-293 cells, 100 ng pG5luc reporter plasmid, 96 hours transfection, read off a plot; for percent of parent: parent: est. 100

DHOV M I121A (natural protein) showed a reduction of the firefly luciferase signal relative to WT M [1] greater than 10%.

Substance DHOV M I121S (natural protein) has a reduction of the firefly luciferase signal relative to WT M [1] greater than 10%.

In the case of DHOV M L122A (natural protein), the firefly luciferase signal as percent of WT M [1] is reported as < 70 % of WT M.

With DHOV M L122S (natural protein) the firefly luciferase signal as percent of WT M [1] was < 70 % of WT M.

“Dhori virus (DHOV) matrix protein (M) I121A; L122A” was tested, and the response (fold induction) ([2]; parent: est. 5.2) was 4.5 and the percent of parent [2] was 86 % of WT M.

For “Dhori virus (DHOV) matrix protein (M) I121S; L122S”, the response (fold induction) ([2]; parent: est. 5.2) was 4.7 and the percent of parent [2] was 90 % of WT M.

“Dhori virus (DHOV) matrix protein (M) I127A” gave a response (fold induction) ([2]; parent: est. 5.7) of 11.

In the case of “Dhori virus (DHOV) matrix protein (M) I127S”, the response (fold induction) ([2]; parent: est. 5.7) is reported as 14.

With “Dhori virus (DHOV) matrix protein (M) L116A” the response (fold induction) ([2]; parent: est. 5.7) was 4.2 and the percent of parent [2] was 74 % of WT M.

For “Dhori virus (DHOV) matrix protein (M) L116S”, the response (fold induction) ([2]; parent: est. 5.7) was 5.3 and the percent of parent [2] was 92 % of WT M.

For “Dhori virus (DHOV) matrix protein (M) L120A”, the response (fold induction) ([2]; parent: est. 5.7) was 7.6 and the percent of parent [2] was 130 % of WT M.

In the case of “Dhori virus (DHOV) matrix protein (M) L120S”, the response (fold induction) ([2]; parent: est. 5.7) is reported as 7.7 and the percent of parent [2] is reported as 140 % of WT M.

With “Dhori virus (DHOV) matrix protein (M) M119A” the response (fold induction) ([2]; parent: est. 5.7) was 5.8 and the percent of parent [2] was 100 % of WT M.

With “Dhori virus (DHOV) matrix protein (M) M119S” the response (fold induction) ([2]; parent: est. 5.7) was 7.3 and the percent of parent [2] was 130 % of WT M.

“Dhori virus (DHOV) matrix protein (M) V115A” was tested, and the response (fold induction) ([2]; parent: est. 5.7) was 6 and the percent of parent [2] was 110 % of WT M.

For “Dhori virus (DHOV) matrix protein (M) V115A; L116A; M119A; L120A; I121A; L122A; I127A”, the response (fold induction) ([2]; parent: est. 5.2) was 1.4 and the percent of parent [2] was 27 % of WT M.

In the case of “Dhori virus (DHOV) matrix protein (M) V115G; L116G; M119G; L120G; I121G; L122G; I127G”, the response (fold induction) ([2]; parent: est. 5.2) is reported as 1.4 and the percent of parent [2] is reported as 27 % of WT M.

In the case of “Dhori virus (DHOV) matrix protein (M) V115R; L116R; M119R; L120R; I121R; L122R; I127R”, the response (fold induction) ([2]; parent: est. 5.2) is reported as 1.4 and the percent of parent [2] is reported as 27 % of WT M.

For “Dhori virus (DHOV) matrix protein (M) V115S”, the response (fold induction) ([2]; parent: est. 5.7) was 6.2 and the percent of parent [2] was 110 % of WT M.
